B1: humanized 19.1 mAb with heavy chain variable region humanized 19.1 VH-4-59-01 (antibody, V domains shown)
VH: QVQLQESGPGLVKPSETLSLTCTVSGFSLTTYGVHWIRQPPGKGLEWIGVIWSGGDTDYNASFISRVTISVDTSKNQFSLKLSSVTAADTAVYYCARNKDYYTNYDFTMDYWGQGTTVTVSS
VL: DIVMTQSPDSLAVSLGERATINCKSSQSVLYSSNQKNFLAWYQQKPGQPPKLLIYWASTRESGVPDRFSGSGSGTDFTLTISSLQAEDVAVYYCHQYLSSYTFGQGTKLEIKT
B2: mAb 19.1 (antibody, V domains shown)
VH: QVQLKQSGPGLVQPSQSLSISCTVSGFSLTTYGVHWVRQSPGKGLEWLGVIWSGGDTDYNASFISRLRINKDTSKSQVFFKMNSLQADDTAYYCARNKDYYTNYDFTMDYWGQGTSVTVSS
VL: NIMMTQSPSSLAVSAGEKVTMSCKSSQSVLYSSNQKNFLAWYQQKPGQSPKLLIYWASTRESGVPDRFTGSGSGTDFILTINSVQVEDQAVYYCHQYLSSYTFGGGTKLEIK
B3: chimeric 19.1 mAb (antibody, V domains shown)
VH: B2 VH
VL: NIMMTQSPSSLAVSAGEKVTMSCKSSQSVLYSSNQKNFLAWYQQKPGQSPKLLIYWASTRESGVPDRFTGSGSGTDFILTINSVQVEDQAVYYCHQYLSSYTFGGGTKLEIKT
B4: humanized 19.1 mAb with heavy chain variable region humanized 19.1 VH-3-66-04 (antibody, V domains shown)
VH: EVQLVESGGGLVQPGGSLRLSCAASGFSLTTYGVHWVRQAPGKGLEWVSVIWSGGDTDYNASFISRFTISRDNSKNTLYLQMNSLRAEDTAVYYCARNKDYYTNYDFTMDYWGQGTTVTVSS
VL: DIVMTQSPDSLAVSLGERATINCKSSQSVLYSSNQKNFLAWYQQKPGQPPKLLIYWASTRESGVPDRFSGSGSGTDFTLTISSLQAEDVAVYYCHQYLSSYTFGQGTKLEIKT

Target: human properdin (UniProt P27918 28-469)
Assay: Biacore SPR

Sequence of human properdin (P27918 28-469): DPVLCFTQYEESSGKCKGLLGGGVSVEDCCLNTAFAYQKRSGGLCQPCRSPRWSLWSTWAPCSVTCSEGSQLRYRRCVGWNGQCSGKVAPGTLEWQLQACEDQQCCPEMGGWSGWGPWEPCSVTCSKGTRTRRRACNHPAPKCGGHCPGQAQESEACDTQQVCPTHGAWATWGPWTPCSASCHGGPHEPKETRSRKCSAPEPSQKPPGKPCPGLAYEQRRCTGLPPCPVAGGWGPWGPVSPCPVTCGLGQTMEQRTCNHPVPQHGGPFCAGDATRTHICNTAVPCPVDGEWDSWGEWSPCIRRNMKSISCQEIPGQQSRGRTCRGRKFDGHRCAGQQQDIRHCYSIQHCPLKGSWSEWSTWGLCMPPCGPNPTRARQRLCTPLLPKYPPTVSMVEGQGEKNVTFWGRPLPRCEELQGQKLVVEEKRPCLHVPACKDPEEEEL

| Binder | Kd |
| --- | --- |
| B1 | 0.58 nM |
| B2 | 0.00284 nM |
| B3 | 0.00289 nM |
| B4 | 0.47 nM |
